Data published in patent publication US20200317755A1.
Like-named read-outs stand apart in the source and are kept apart here.

Key:
[1] = target: T1, panel of four distinct ZIKV strains (H/PF/2013; MR766, MRS-OPY and PV 10552); assay: cell-based or functional assay
[2] = target: T1, panel of four distinct ZIKV strains …; assay: cell-based or functional assay; remark: listed apart in the source

B1: ZKA190 (antibody, V domains shown)
VH: QVQLVESGGGVVQPGRSLRLSCAASGFTFSKYGMHWVRQAPGKGLEWVAVISYEGSNKYYADSVKGRFTISRDNSKNTLYLQMNSLRAEDTAVYYCAKSGTQYYDTTGYEYRGLEYFGYWGQGTLVTVSS
VL: EIVLTQSPGTLSLSPGERATLSCRASQSVSSSYLAWYQQKRGQAPRLLIYDASSRATGIPDRFSGSGSGTDFTLTISRLEPEDFAVYYCQQYGRSRWTFGQGTKVEIK
- IC50, neutralization of four ZIKV strains on Vero cells (flow cytometry) [1]: 0.004 to 0.05 nM
- IC50, neutralization of four ZIKV strains on Vero cells (flow cytometry) [2]: 0.6 to 8 ng/mL
